For data set [1], the target named is T1, BbGSTe1 (Beauveria bassiana, UniProt J4UX82).
T1 construct: gene BBA_00672
Briefly: GSH conjugation, absorbance at […] nm, Michaelis-Menten fit. Conditions: read-out: KM / μM; 4 mM GSH (saturating); ITC 25-800 µM; n = 4.

Data set [2] has as its target T2, BbGSTUre2p3 (Beauveria bassiana, UniProt J4KPJ4).
T2 construct: gene BBA_03339
The data set is described as above. As to conditions: read-out: KM / μM; 4 mM GSH (saturating); ITC 25-800 µM; n = 4.

For data set [3], the target named is T3, BbGSTUre2p2 (Beauveria bassiana, UniProt J5JP22).
T3 construct: gene BBA_04201
The description is as above. Conditions: read-out: KM / μM; 4 mM GSH (saturating); ITC 25-800 µM; n = 4.

The target of data set [4] is T4, BbGSTN21 (Beauveria bassiana, UniProt J5JKP3).
T4 construct: gene BBA_07410
The description is as above. As to conditions: read-out: KM / μM; 4 mM GSH (saturating); ITC 25-800 µM; n = 4.

In data set [5] the test system is C=CCN=C=S. Briefly: purified protein. As to conditions: 4 mM GSH (saturating); ITC 25-800 µM; n = 4.
The test system of data set [6] is S=C=NCCc1ccccc1. Briefly: purified protein. Conditions: 4 mM GSH (saturating); ITC 25-800 µM; n = 4.

T3 sequence (J5JP22 entry or part of it): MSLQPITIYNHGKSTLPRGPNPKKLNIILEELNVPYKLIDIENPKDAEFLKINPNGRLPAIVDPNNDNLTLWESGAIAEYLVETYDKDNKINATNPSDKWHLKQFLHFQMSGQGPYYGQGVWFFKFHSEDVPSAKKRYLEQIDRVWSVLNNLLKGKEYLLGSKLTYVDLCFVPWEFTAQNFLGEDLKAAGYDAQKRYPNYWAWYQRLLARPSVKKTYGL
T1 sequence (J4UX82 entry or part of it): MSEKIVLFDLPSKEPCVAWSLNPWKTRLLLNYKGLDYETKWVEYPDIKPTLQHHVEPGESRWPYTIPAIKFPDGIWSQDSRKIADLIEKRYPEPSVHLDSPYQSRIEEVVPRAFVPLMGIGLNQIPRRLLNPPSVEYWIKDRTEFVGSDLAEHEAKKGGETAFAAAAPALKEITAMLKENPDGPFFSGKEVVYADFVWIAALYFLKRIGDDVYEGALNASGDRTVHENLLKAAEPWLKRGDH
T2 sequence (J4KPJ4 entry or part of it): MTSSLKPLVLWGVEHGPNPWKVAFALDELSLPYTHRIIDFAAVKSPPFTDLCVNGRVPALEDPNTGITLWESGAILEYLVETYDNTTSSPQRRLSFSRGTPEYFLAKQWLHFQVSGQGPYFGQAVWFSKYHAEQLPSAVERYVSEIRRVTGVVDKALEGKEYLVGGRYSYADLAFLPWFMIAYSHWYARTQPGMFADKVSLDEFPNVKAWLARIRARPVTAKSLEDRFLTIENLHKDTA
T4 sequence (J5JKP3 entry or part of it): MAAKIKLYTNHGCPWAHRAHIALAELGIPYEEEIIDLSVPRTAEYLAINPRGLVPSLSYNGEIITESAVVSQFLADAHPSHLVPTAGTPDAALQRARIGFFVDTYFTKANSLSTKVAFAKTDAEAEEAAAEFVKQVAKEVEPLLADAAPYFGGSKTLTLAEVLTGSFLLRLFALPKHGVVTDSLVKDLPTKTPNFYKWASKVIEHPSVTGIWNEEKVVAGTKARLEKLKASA

For `C[S+]([O-])CCCCN=C=S` (stereo not drawn) [1a, 4MSOB-ITC], the Km was found to be 1220 ± 839 µM in data set [1], 747 ± 338 µM in data set [2], 1210 ± 890 µM in data set [3] and 1130 ± 578 µM in data set [4].

One may read the Vmax as the rate approached at saturating substrate. As a reminder, the kcat is the maximal rate divided by the concentration of active sites. A word on the kcat/Km: it is the turnover number divided by the Michaelis constant. With “BbGSTN21 (Beauveria bassiana ARSEF 2860)”, in data set [5], the Km is 448.48 ± 226.89 µM, the Vmax is 2.39 µmol/min/mg, the kcat turned out to be 1 ± 0.24 s⁻¹ and the catalytic efficiency (kcat/Km) amounted to 2230 ± 540 M⁻¹ s⁻¹. In addition, in data set [6], the Km was 1191.89 ± 1464.92 µM, the maximum rate (Vmax) was determined as 0.97 µmol/min/mg, the kcat was determined as 0.41 ± 0.36 s⁻¹ and the catalytic efficiency (kcat/Km) worked out at 340 ± 300 M⁻¹ s⁻¹.

With “BbGSTUre2p2 (Beauveria bassiana ARSEF 2860)”, in data set [5], the Km is 487.23 ± 266.11 µM, the maximum rate (Vmax) was 0.44 µmol/min/mg, the kcat is 0.18 ± 0.05 s⁻¹ and the kcat/Km came out at 370 ± 100 M⁻¹ s⁻¹. Besides, in data set [6], the Km was determined as 223.06 ± 86.81 µM, the Vmax was 0.15 µmol/min/mg, the catalytic constant (kcat) is 0.06 ± 0.01 s⁻¹ and the kcat/Km was determined as 280 ± 50 M⁻¹ s⁻¹.

As for “BbGSTUre2p3 (Beauveria bassiana ARSEF 2860)”, in data set [5], the Km is on record as 831.61 ± 572.57 µM, the Vmax came to 0.59 µmol/min/mg, the kcat was 0.27 ± 0.11 s⁻¹ and the specificity constant (kcat/Km) was 320 ± 130 M⁻¹ s⁻¹. In addition, in data set [6], the Km turned out to be 71.76 ± 38.91 µM, the maximum rate (Vmax) came out at 0.08 µmol/min/mg, the kcat came to 0.04 ± 0.01 s⁻¹ and the catalytic efficiency (kcat/Km) turned out to be 490 ± 80 M⁻¹ s⁻¹.

Turning to BbGSTe1 (Beauveria bassiana ARSEF 2860), in data set [5], the Km is 312.75 ± 100.06 µM, the Vmax worked out at 0.41 µmol/min/mg, the catalytic constant (kcat) is 0.19 ± 0.02 s⁻¹ and the kcat/Km was 590 ± 80 M⁻¹ s⁻¹. In addition, in data set [6], the Km came out at 860.76 ± 561.56 µM, the maximum rate (Vmax) came to 1.9 µmol/min/mg, the kcat came out at 0.88 ± 0.35 s⁻¹ and the kcat/Km came to 1020 ± 410 M⁻¹ s⁻¹.

The values above are taken from publication PMC10504261, “Metabolism of plant-derived toxins from its insect host increases the success of the entomopathogenic fungus Beauveria bassiana” (The ISME Journal, 2023).
